This data set addresses T1, Bruno-EGFP (BrunoFL-EGFP) (UniProt O02374).
T1 sequence: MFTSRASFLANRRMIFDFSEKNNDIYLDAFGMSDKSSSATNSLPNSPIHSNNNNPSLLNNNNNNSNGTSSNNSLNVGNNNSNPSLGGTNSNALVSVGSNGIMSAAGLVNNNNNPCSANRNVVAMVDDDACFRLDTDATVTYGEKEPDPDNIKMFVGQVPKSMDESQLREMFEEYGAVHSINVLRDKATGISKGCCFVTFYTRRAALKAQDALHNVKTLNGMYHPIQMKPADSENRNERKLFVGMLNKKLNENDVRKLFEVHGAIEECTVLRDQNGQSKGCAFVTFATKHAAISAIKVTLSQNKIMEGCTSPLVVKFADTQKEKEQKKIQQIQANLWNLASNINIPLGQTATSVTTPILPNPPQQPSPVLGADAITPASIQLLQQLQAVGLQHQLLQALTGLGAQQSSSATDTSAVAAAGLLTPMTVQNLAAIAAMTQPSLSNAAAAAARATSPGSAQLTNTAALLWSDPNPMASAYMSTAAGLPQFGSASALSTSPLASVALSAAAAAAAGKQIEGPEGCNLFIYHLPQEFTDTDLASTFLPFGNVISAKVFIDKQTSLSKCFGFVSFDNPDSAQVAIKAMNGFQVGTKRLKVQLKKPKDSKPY
The experiment in a line: EMSA. Conditions: EMSA: 50 nM RNA, 20 mM Tris-HCl pH 7.5, 150 mM NaCl, 2 mM MgCl2, 5% glycerol, 0.5 mM TCEP, 20 min at room temperature; 0.8% agarose 0.5x TBE gel at 4 C. On the technique in general: Mobility shift assays separate free from complexed probe on a gel.
For “GGGUGGAAAAUUCGCUUGCACAAAAUCAACGCCGCGGCUGAUUUAUUAUUGAUGUGCUCAAGCAAAUUCA [WTOES (WT67)]”, the binding result is recorded as “no binding”. For “GGGAGUGAAGCAUUUGCGCGAUUUUCGUCUUUCUGUUUCCGUUUGCAAAAAAGUUUAUAAAAUGCUUACACUCUGCUGCAGACACGCCAACCGGAAGUGCGCACUAAGCGCUUGUUUGUAGCACAGUGUAGAAUUCUGGCGUAAUUUACAGCUCUACUUUAAAGUCUUCUAGAUAGCUAUCUACUAUUUAUAAACUUAUUUAUUGUCUUGAAUGUAUGUUAAUUGUAUGUAUUGAUGGUGAUCACGUUUUUUUUGUCCUAUAACAAGCUGCAAUGUAAAAUCCAAAAAAAAAAUG [oskar292]” the value was “binds”.

In the case of “GGGUGGAAAAUUCGCUUGCACAAAAUCAACGUUGCGGCUGAUUUAUUAUUGAUGUGCUCAAGCAAAUUCA [UUOES (UU67)]”, the binding result is recorded as “no binding”.

Source of the values: article PMC11567897.
